According to paper PMC5827684:

Tests used:
[1] = test system: IscR-C92A (apo-locked) (Escherichia coli); assay: EMSA
[2] = test system: Fur (Mn2+-Fur) (Escherichia coli); assay: EMSA

Substance | binding [1] [nM] | binding [2] [nM]
control DNA in 3' end of hmuR coding region | 250 | –
hmuR promoter (p1) | – | 31.2
hmuR-hmuS intergenic, larger fragment | 62.5 | –
